{"source": "paper PMC12364711", "molecular_target": "superGmFLS2, C-terminal mEGFP (soybean (Glycine max))", "data": [{"substance": "NbBAK1 (BRASSINOSTEROID … 1-ASSOCIATED KINASE 1 of Nicotiana benthamiana), C-terminal 4xHA (receptor)", "values": [{"measurement": "total flg22^Rso-induced ROS production in N. benthamiana fls2 leaves, against wild-type GmFLS2b", "value": "> 3", "unit": "fold"}]}]}
